Source: article PMC3382207, “Proteolytic Processing of ErbB4 in Breast Cancer” (PLoS ONE, 2012)

Experiments:
soluble ErbB4 ectodomain [1] = biological target: T1, soluble ErbB4 ectodomain (UniProt Q15303)
T1 sequence: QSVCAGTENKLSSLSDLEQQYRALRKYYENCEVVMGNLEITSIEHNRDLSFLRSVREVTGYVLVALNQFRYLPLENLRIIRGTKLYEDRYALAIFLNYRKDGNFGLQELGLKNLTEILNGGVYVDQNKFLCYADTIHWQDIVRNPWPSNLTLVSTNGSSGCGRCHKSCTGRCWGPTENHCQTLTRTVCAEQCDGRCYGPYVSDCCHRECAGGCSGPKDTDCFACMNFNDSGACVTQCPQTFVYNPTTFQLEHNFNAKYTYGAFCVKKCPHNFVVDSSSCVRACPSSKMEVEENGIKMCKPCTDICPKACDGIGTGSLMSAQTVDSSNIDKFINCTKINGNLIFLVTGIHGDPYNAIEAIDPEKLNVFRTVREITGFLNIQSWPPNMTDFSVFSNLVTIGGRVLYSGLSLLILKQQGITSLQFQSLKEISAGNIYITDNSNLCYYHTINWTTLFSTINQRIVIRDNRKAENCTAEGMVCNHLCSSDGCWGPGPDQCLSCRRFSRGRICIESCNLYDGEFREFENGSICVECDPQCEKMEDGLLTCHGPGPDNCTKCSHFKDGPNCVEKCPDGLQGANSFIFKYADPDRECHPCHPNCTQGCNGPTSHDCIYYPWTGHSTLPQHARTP

[2] = biological target: T2, His-tagged extracellular subdomain IV of ErbB4 (Homo sapiens, isoform JM-a, UniProt Q15303); assay: Western blot; conditioned media of COS-7 transfectants expressing the His-tagged subdomains, blotted under non-reducing conditions, mAb 1479 as the primary antibody; anti-pentaHis as control of expression; conditions: one partner purified
T2 construct: ErbB4 extracellular subdomain IV; construct limits are in File S1; source: COS-7, transiently transfected, in conditioned medium; not shown: His tag, C-terminal, kept

soluble ErbB4 ectodomain [3] = biological target: T1, soluble ErbB4 ectodomain; remark: listed apart in the source

T2 sequence (Q15303 whole entry, looked up, tested part not stated, canonical isoform): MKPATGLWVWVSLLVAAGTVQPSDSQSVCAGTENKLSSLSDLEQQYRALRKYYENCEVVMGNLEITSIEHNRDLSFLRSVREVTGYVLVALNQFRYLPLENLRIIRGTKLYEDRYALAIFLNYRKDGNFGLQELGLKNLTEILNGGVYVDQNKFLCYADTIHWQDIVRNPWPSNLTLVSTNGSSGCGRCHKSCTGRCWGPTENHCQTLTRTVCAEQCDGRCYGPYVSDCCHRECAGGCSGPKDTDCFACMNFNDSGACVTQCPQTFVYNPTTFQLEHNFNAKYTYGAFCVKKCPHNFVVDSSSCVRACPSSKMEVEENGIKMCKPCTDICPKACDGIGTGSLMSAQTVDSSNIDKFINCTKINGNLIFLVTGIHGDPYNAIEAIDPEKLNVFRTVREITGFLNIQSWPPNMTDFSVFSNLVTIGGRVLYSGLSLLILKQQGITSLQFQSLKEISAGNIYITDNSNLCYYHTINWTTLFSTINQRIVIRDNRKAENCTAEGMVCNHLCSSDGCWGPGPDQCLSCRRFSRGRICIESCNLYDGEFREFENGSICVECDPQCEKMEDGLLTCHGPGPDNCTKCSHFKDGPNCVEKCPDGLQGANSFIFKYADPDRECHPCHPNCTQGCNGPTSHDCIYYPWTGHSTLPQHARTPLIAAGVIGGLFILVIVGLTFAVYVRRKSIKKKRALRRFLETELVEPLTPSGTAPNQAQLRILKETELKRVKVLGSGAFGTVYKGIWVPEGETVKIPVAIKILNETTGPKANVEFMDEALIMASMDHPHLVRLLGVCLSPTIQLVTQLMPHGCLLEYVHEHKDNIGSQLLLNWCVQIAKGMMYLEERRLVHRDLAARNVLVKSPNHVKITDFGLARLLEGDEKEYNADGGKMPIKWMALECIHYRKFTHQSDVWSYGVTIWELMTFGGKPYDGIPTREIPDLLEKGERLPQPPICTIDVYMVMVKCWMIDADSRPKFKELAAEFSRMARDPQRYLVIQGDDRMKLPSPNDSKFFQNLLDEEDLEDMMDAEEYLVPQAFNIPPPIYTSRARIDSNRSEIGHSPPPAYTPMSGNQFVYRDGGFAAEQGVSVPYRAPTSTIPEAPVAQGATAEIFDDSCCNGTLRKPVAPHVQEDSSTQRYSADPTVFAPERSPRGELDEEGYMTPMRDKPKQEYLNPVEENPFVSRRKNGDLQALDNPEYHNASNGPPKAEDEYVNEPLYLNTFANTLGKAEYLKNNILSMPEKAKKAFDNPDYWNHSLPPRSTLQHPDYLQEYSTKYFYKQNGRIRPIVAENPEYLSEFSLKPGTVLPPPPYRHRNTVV

B1: anti-ErbB4 monoclonal antibody mAb 1479 (antibody, V domains shown)
VH: QVTLKESGPGILQPSQTLSLTCSFSGFSLSTYGIGVGWIRQPSGKGLEWLAHIWWNDNKYYNIALRSRLTISKDTSNNQVFLKIASVDTADTATYYCARIPDDHYFDYWGQGTTLTVSS
VL: DVLMTQTPLSLPVSLGDQASISCRSSQSIVHSNGNTYLEWYLQKPGQSPKLLIYKVSNRFSGVPDRFSGSGSGTDFTLKISRVEAEDLGVYYCFQGSHVPWTFGGGTKLEIK
notes: constant part of the IgG2 isotype; mouse monoclonal antibody, IgG2 isotype
relative proportion of the 100 kD ectodomain fragment of total ErbB4 in T-47D xenografts (Western blot with mAb 1464), control IgG against mAb 1479 (soluble ErbB4 ectodomain [1]): 9% | binding result [2]: binds | relative proportion of the 80 kD carboxy-terminal fragment of the total ErbB4 in T-47D xenografts (Western blot with E-200), control IgG against mAb 1479 (soluble ErbB4 ectodomain [3]): 74%
